From paper PMC12329027 (Communications Chemistry, 2025)

Molecular target: the molecule itself
Assay: cryo-EM structure

B1: full-length human αA-crystallin carrying the pathological mutation R116C (natural protein)
chain: MDVTIQHPWFKRTLGPFYPSRLFDQFFGEGLFEYDLLPFLSSTISPYYRQSLFRTVLDSGISEVRSDRDKFVIFLDVKHFSPEDLTVKVQDDFVEIHGKHNERQDDHGYISREFHCRYRLPSNVDQSALSCSLSADGMLTFCGPKIQTGLDATHAERAIPVSREEKPTSAPSS
Q: Does B1 bind?
A: Result: binds
